Our source for the Kd values is article PMC13456277, “Direct interaction between RSV polymerase L and active Rab11a mediates viral ribonucleoprotein transport to assembly sites” (PLOS Pathogens, 2026).

Where a chain is given by its changes, count along the chain named. Names and notes keep the numbering of the source.

Test [1] deals with RSV L-Twin-Strep-tag + P-his (human respiratory syncytial virus, UniProt P28887 1-2165; P03421 1-241). Briefly: BLI. Background: Biolayer interferometry detects binding as a change in optical thickness at a sensor tip.
Test [2] has as its target T1, RSV L-Twin-Strep-tag + P-his (human respiratory syncytial virus, UniProt P28887 1-2165; P03421 1-241).
T1 construct: RSV large polymerase L, codon-optimized; RSV phosphoprotein P, codon-optimized; L as in m21; also called L-P^-his; L-P complexes; source: Sf9, baculovirus, purified (Strep-Trap XT, SEC Superose 6); not shown: Twin-Strep-tag, C-terminal, kept; His6, C-terminal, kept
Description: BLI; Octet RED 384, 25°C; L-Twin-Strep-tag + P-his loaded on Ni-NTA sensors; two-fold dilutions of GST-Rab11a (with 1 mM GTP) or GST-Rab11a CA from 50 nM to 3.2 µM; association 60 min to steady state, dissociation 5 min; apparent KD from steady-state responses, one-site model, double referenced. The following applies: both partners purified.

B1: GST-Rab11a(Q70L) CA (natural protein)
chain: MGTRDDEYDYLFKVVLIGDSGVGKSNLLSRFTRNEFNLESKSTIGVEFATRSIQVDGKTIKAQIWDTAGLERYRAITSAYYRGAVGALLVYDIAKHLTYENVERWLKELRDHADSNIVIMLVGNKSDLRHLRAVPTDEARAFAEKNGLSFIETSALDSTNVEAAFQTILTEIYRIVSQKQMSDRRENDMSPSNNVVPIHVPPTTENKPKVQCCQNI
For the molecule B1, in test [1], the Kd stood at 1200 nM.

B2: GST-Rab11a WT (natural protein, human, UniProt P62491 1-216, looked up)
chain: B1 chain with L70Q
notes: human Rab11a; pGEX 4T-3; Used with or without 1 mM GTP; also called GST-Rab11a wild-type; source: E. coli BL21, purified (Glutathione Sepharose 4B, SEC Superdex 200); not shown: GST, N-terminal, kept
Take B2: the Kd in test [2] came to 300 nM.
